Experimental data as given in article PMC5770965, “pKID Binds to KIX via an Unstructured Transition State with Nonnative Interactions” (Biophysical Journal, 2017).
Non-standard residues stand in square brackets, D forms with d. No end group written: not given here. *: point of attachment. FITC = O=C1OC2(c3ccc(O)cc3Oc3cc(O)ccc32)c2ccc(NC(=S)*)cc21; pS = N[C@@H](COP(=O)(O)O)C(=O)O

B1: FITC-KID, not phosphorylated at Ser133 (CREB residues 116-146) (peptide, UniProt P15337-1 116-146, looked up)
peptide: {FITC}-DSVTDSQKRREILSRRPSYRKILNDLSSDAP
notes: 'pSer to Ser' in the text; also called ∆pS133; pS133S; source: synthetic peptide, bought: Biomatik
B2: FITC-pKID wild-type (CREB residues 116-146, phosphorylated at Ser133) (peptide, UniProt P15337-1 116-146, looked up)
peptide: {FITC}-DSVTDSQKRREILSRRP[pS]YRKILNDLSSDAP
notes: also called wtFITCpKID; source: synthetic peptide, bought: Biomatik
B3: FITC-pKID R125A (peptide, UniProt P15337-1 116-146, looked up)
peptide: {FITC}-DSVTDSQKRAEILSRRP[pS]YRKILNDLSSDAP
notes: source: synthetic peptide, bought: Biomatik
B4: FITC-pKID R124A (peptide, UniProt P15337-1 116-146, looked up)
peptide: {FITC}-DSVTDSQKAREILSRRP[pS]YRKILNDLSSDAP
notes: as for B3
B5: FITC-pKID L138A (peptide, UniProt P15337-1 116-146, looked up)
peptide: {FITC}-DSVTDSQKRREILSRRP[pS]YRKIANDLSSDAP
notes: as for B3
B6: FITC-pKID I137A (peptide, UniProt P15337-1 116-146, looked up)
peptide: {FITC}-DSVTDSQKRREILSRRP[pS]YRKALNDLSSDAP
notes: as for B3
B7: FITC-pKID S142A (peptide, UniProt P15337-1 116-146, looked up)
peptide: {FITC}-DSVTDSQKRREILSRRP[pS]YRKILNDLASDAP
notes: as for B3
B8: FITC-pKID R131A (peptide, UniProt P15337-1 116-146, looked up)
peptide: {FITC}-DSVTDSQKRREILSRAP[pS]YRKILNDLSSDAP
notes: as for B3
B9: FITC-pKID D140A (peptide, UniProt P15337-1 116-146, looked up)
peptide: {FITC}-DSVTDSQKRREILSRRP[pS]YRKILNALSSDAP
notes: as for B3
B10: FITC-pKID L128A (peptide, UniProt P15337-1 116-146, looked up)
peptide: {FITC}-DSVTDSQKRREIASRRP[pS]YRKILNDLSSDAP
notes: as for B3
B11: FITC-pKID S121A (peptide, UniProt P15337-1 116-146, looked up)
peptide: {FITC}-DSVTDAQKRREILSRRP[pS]YRKILNDLSSDAP
notes: as for B3
B12: FITC-pKID S143G (peptide, UniProt P15337-1 116-146, looked up)
peptide: {FITC}-DSVTDSQKRREILSRRP[pS]YRKILNDLSGDAP
notes: the text prints S143G; also called A143G; source: synthetic peptide, bought: Biomatik
B13: FITC-pKID P132G (peptide, UniProt P15337-1 116-146, looked up)
peptide: {FITC}-DSVTDSQKRREILSRRG[pS]YRKILNDLSSDAP
notes: also called A132G; source: synthetic peptide, bought: Biomatik
B14: FITC-pKID R135A (peptide, UniProt P15337-1 116-146, looked up)
peptide: {FITC}-DSVTDSQKRREILSRRP[pS]YAKILNDLSSDAP
notes: as for B3
B15: FITC-pKID K136A (peptide, UniProt P15337-1 116-146, looked up)
peptide: {FITC}-DSVTDSQKRREILSRRP[pS]YRAILNDLSSDAP
notes: as for B3
B16: FITC-pKID R135G (peptide, UniProt P15337-1 116-146, looked up)
peptide: {FITC}-DSVTDSQKRREILSRRP[pS]YGKILNDLSSDAP
notes: also called A135G; source: synthetic peptide, bought: Biomatik
B17: FITC-pKID K136G (peptide, UniProt P15337-1 116-146, looked up)
peptide: {FITC}-DSVTDSQKRREILSRRP[pS]YRGILNDLSSDAP
notes: also called A136G; source: synthetic peptide, bought: Biomatik
B18: FITC-pKID P132A (peptide, UniProt P15337-1 116-146, looked up)
peptide: {FITC}-DSVTDSQKRREILSRRA[pS]YRKILNDLSSDAP
notes: as for B3
B19: FITC-pKID T119A (peptide, UniProt P15337-1 116-146, looked up)
peptide: {FITC}-DSVADSQKRREILSRRP[pS]YRKILNDLSSDAP
notes: as for B3
B20: FITC-pKID E126A (peptide, UniProt P15337-1 116-146, looked up)
peptide: {FITC}-DSVTDSQKRRAILSRRP[pS]YRKILNDLSSDAP
notes: as for B3
B21: FITC-pKID T119G (peptide, UniProt P15337-1 116-146, looked up)
peptide: {FITC}-DSVGDSQKRREILSRRP[pS]YRKILNDLSSDAP
notes: the peptide has Gly in place of the natural Thr119; also called A119G; source: synthetic peptide, bought: Biomatik
B22: FITC-pKID S143A (peptide, UniProt P15337-1 116-146, looked up)
peptide: {FITC}-DSVTDSQKRREILSRRP[pS]YRKILNDLSADAP
notes: as for B3
B23: FITC-pKID E126G (peptide, UniProt P15337-1 116-146, looked up)
peptide: {FITC}-DSVTDSQKRRGILSRRP[pS]YRKILNDLSSDAP
notes: also called A126G; source: synthetic peptide, bought: Biomatik
B24: FITC-pKID I137A (peptide, UniProt P15337-1 116-146, looked up)
peptide: {FITC}-DSVTDSQKRREILSRRP[pS]YRKALNDLSSDAP
notes: as for B3
B25: FITC-pKID L128A (peptide, UniProt P15337-1 116-146, looked up)
peptide: {FITC}-DSVTDSQKRREIASRRP[pS]YRKILNDLSSDAP
notes: as for B3
B26: FITC-pKID L138A (peptide, UniProt P15337-1 116-146, looked up)
peptide: {FITC}-DSVTDSQKRREILSRRP[pS]YRKIANDLSSDAP
notes: as for B3
B27: FITC-pKID Y134A (peptide, UniProt P15337-1 116-146, looked up)
peptide: {FITC}-DSVTDSQKRREILSRRP[pS]ARKILNDLSSDAP
notes: as for B3
B28: FITC-pKID Y134A (peptide, UniProt P15337-1 116-146, looked up)
peptide: {FITC}-DSVTDSQKRREILSRRP[pS]ARKILNDLSSDAP
notes: as for B3

What follows are molecules tested against KIX domain of CBP KIX domain (UniProt P45481) (assay: fluorescence anisotropy and stopped-flow kinetics). Details: reference: unphosphorylated KID peptide (Ser133); sites S133.
Sequence of KIX domain of CBP KIX domain (P45481 whole entry, looked up, the tested form may be a part): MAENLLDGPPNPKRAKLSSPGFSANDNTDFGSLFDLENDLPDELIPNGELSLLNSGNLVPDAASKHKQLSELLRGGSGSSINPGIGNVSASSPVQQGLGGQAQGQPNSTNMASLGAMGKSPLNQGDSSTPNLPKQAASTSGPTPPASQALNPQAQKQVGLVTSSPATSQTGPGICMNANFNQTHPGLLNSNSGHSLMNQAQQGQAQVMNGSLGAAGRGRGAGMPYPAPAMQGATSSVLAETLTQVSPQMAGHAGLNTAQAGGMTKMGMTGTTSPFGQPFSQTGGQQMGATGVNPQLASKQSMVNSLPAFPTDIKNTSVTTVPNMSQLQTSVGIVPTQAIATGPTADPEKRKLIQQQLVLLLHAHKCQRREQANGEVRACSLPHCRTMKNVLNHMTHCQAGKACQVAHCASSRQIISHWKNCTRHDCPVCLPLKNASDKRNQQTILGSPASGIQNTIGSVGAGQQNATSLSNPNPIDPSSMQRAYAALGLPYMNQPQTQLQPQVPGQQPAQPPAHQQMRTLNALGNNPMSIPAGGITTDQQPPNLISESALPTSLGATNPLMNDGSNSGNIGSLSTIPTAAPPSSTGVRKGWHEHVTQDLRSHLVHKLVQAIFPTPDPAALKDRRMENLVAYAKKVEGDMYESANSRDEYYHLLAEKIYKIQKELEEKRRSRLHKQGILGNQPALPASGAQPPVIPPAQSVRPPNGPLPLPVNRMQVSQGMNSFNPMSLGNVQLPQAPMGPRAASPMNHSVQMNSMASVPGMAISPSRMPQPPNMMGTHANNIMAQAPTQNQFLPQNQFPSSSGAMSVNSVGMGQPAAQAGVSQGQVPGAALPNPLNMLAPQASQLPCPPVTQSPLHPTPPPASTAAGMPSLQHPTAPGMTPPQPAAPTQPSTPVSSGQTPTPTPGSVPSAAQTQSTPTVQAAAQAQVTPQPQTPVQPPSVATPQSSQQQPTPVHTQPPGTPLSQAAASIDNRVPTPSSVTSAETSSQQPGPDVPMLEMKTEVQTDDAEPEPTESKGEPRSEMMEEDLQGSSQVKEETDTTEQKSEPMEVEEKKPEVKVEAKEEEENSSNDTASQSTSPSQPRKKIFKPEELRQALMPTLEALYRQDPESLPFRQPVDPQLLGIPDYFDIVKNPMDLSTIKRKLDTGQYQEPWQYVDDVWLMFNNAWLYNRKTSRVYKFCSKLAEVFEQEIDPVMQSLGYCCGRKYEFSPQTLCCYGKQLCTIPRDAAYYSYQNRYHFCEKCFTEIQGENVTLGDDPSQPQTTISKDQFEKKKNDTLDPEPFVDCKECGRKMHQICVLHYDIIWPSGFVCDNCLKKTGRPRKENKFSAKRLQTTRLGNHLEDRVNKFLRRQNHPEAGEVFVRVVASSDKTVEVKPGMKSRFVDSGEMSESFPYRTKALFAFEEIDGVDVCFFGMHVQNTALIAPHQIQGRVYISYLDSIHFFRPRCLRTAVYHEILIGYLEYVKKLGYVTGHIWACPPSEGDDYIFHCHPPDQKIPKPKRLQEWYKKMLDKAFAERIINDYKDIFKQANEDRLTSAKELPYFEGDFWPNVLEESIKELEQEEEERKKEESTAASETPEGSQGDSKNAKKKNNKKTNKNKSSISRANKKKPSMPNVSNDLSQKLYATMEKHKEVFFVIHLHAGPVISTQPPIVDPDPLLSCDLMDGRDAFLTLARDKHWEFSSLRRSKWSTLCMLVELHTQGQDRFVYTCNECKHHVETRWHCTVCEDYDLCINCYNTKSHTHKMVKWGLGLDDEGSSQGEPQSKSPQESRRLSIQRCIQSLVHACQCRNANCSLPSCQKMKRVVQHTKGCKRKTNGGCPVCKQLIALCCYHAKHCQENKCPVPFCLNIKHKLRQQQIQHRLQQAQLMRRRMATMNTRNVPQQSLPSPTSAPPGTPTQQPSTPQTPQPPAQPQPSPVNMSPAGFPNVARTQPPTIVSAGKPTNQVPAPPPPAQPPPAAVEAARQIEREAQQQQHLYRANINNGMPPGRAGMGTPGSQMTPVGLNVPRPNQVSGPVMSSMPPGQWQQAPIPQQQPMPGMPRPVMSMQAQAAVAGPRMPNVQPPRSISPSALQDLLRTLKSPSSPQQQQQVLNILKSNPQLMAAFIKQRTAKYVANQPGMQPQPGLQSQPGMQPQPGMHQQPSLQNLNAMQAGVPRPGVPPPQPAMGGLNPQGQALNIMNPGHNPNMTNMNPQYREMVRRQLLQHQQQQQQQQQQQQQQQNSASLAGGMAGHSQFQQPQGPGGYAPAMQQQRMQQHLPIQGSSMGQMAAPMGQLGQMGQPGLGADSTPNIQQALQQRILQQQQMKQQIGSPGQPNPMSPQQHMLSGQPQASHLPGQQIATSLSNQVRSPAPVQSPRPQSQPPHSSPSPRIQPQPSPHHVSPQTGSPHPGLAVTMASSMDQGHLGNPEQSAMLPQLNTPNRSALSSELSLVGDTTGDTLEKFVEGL

| Molecule | binding against the reference |
| --- | --- |
| CREB (KID / pKID region) 116-146 (from UniProt P15337-1) pSer133 pKID peptide | stronger |

What follows are molecules tested against T1, KIX domain of CBP (UniProt P45481 586-665) (assay: stopped-flow fluorescence (association kinetics) + dissociation kinetics by competition; KdKin calculated as kdiss/kass,fast). Details: both partners purified.
T1 sequence (P45481 586-665): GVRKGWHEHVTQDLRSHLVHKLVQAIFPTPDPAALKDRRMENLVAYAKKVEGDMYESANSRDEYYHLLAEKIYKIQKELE

| Molecule | Kd [nM] |
| --- | --- |
| B1 | 7500 ± 1300 |
| B2 | 110 ± 20 |
| B3 | 340 ± 30 |
| B4 | 60 ± 20 |
| B5 | 4730 ± 1920 |
| B6 | 9730 ± 1920 |
| B7 | 70 ± 10 |
| B8 | 810 ± 140 |
| B9 | 390 ± 50 |
| B10 | 2000 ± 160 |
| B11 | 100 ± 20 |

Target: T1, KIX domain of CBP
Test: as above
Details: both partners purified
Remark: another data set of the same source

| Molecule | Kd [nM] |
| --- | --- |
| B12 | 190 ± 20 |
| B13 | 390 ± 10 |
| B14 | 240 ± 20 |
| B15 | 90 ± 10 |
| B16 | 1260 ± 70 |
| B17 | 1270 ± 250 |
| B18 | 130 ± 10 |
| B19 | 120 ± 10 |
| B20 | 90 ± 10 |
| B21 | 90 ± 10 |
| B22 | 70 ± 10 |
| B23 | 280 ± 30 |

The molecules below were run against T2, KIX domain of CBP (UniProt P45481 586-666) (assay: fluorescence polarisation; equilibrium fluorescence anisotropy of N-terminally FITC-labelled pKID peptides with KIX; buffer and conditions as in the accompanying article (ref. 42)). Details: both partners purified.
T2 construct: PDB 1KDX is the cited pKID/KIX structure and need not have the same limits
T2 sequence (P45481 586-666): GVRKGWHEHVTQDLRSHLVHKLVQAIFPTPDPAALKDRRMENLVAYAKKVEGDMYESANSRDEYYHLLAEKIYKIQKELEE

| Molecule | fold increase of Kd against wild type [fold] |
| --- | --- |
| B24 | ~100 |
| B25 | > 10 |
| B26 | > 10 |
| B27 | ~1000 |

The molecules below were run against T1, KIX domain of CBP (assay: dissociation kinetics by competition; FITC-pKID displaced from KIX by unlabeled competitor cMybTAD; kdiss = asymptote of the observed dissociation rate against competitor concentration). Details: both partners purified.

| Molecule | koff [s⁻¹] |
| --- | --- |
| B1 | 56.7 |
| B2 | 0.81 |
| B3 | 2.17 |
| B4 | 0.51 |
| B5 | 13.2 |
| B6 | 43.9 |
| B7 | 0.83 |
| B8 | 7.66 |
| B9 | 2.06 |
| B10 | 15.7 |
| B11 | 0.71 |

Target: T1, KIX domain of CBP
Test: as above
Details: both partners purified
Remark: another data set of the same source

| Molecule | koff [s⁻¹] |
| --- | --- |
| B12 | 1.2 |
| B13 | 3.22 |
| B14 | 2.5 |
| B15 | 0.94 |
| B16 | 10.1 |
| B17 | 10.5 |
| B18 | 0.99 |
| B19 | 0.88 |
| B20 | 0.97 |
| B21 | 0.67 |
| B22 | 0.71 |
| B23 | 2.09 |

These molecules were tested against T1, KIX domain of CBP (assay: stopped-flow fluorescence (association kinetics); pseudo-first order conditions with KIX in excess over FITC-pKID; biphasic; kass,fast = gradient of the observed fast rate against KIX concentration). Details: both partners purified.

| Molecule | kon [M⁻¹ s⁻¹] |
| --- | --- |
| B1 | 7.6e+06 |
| B2 | 7.3e+06 |
| B3 | 6.3e+06 |
| B4 | 8.4e+06 |
| B5 | 2.8e+06 |
| B6 | 4.5e+06 |
| B7 | 1.13e+07 |
| B8 | 9.5e+06 |
| B9 | 5.3e+06 |
| B10 | 7.9e+06 |
| B11 | 6.9e+06 |

Target: T1, KIX domain of CBP
Test: as above
Details: both partners purified
Remark: another data set of the same source

| Molecule | kon [M⁻¹ s⁻¹] |
| --- | --- |
| B12 | 6.3e+06 |
| B13 | 8.3e+06 |
| B14 | 1.05e+07 |
| B15 | 1.02e+07 |
| B16 | 8e+06 |
| B17 | 8.3e+06 |
| B18 | 7.7e+06 |
| B19 | 7.3e+06 |
| B20 | 1.05e+07 |
| B21 | 7.1e+06 |
| B22 | 9.7e+06 |
| B23 | 7.6e+06 |

The molecules below were run against T1, KIX domain of CBP (assay: fluorescence polarisation; equilibrium fluorescence anisotropy; KIX titrated into N-terminally FITC-labelled pKID peptide; biophysical buffer and conditions as in the accompanying article (ref. 42); KdEqub). Details: both partners purified.

| Molecule | Kd [nM] |
| --- | --- |
| B1 | 28700 |
| B2 | 110 |
| B3 | 220 |
| B4 | 60 |
| B28 | 111000 |
| B5 | 6300 |
| B6 | 21600 |
| B7 | 120 |
| B8 | 1230 |
| B9 | 260 |
| B10 | 2490 |
| B11 | 120 |

Target: T1, KIX domain of CBP
Test: as above
Details: both partners purified
Remark: another data set of the same source

| Molecule | Kd [nM] |
| --- | --- |
| B12 | 90 |
| B13 | 440 |
| B14 | 100 |
| B15 | 100 |
| B16 | 1160 |
| B17 | 2160 |
| B18 | 70 |
| B19 | 150 |
| B20 | 170 |
| B21 | 80 |
| B22 | 70 |
| B23 | 250 |
